Publication PMC7902612 (2021)

Target: GST-BRCA1-N (N-terminal of BRCA1, 1-147 aa) (human, UniProt P38398 1-147)
Test: MST

GST-BRCA1-N (N-terminal of BRCA1, 1-147 aa), sequence (P38398 1-147): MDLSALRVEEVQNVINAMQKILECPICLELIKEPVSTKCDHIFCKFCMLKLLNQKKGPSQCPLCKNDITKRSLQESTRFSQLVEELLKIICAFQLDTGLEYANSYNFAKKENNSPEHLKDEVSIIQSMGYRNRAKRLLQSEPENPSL

B1: GFP-BARD1^WT (natural protein)
chain: MPDNRQPRNRQPRIRSGNEPRSAPAMEPDGRGAWAHSRAALDRLEKLLRCSRCTNILREPVCLGGCEHIFCSNCVSDCIGTGCPVCYTPAWIQDLKINRQLDSMIQLCSKLRNLLHDNELSDLKEDKPRKSLFNDAGNKKNSIKMWFSPRSKKVRYVVSKASVQTQPAIKKDASAQQDSYEFVSPSPPADVSERAKKASARSGKKQKKKTLAEINQKWNLEAEKEDGEFDSKEESKQKLVSFCSQPSVISSPQINGEIDLLASGSLTESECFGSLTEVSLPLAEQIESPDTKSRNEVVTPEKVCKNYLTSKKSLPLENNGKRGHHNRLSSPISKRCRTSILSTSGDFVKQTVPSENIPLPECSSPPSCKRKVGGTSGRKNSNMSDEFISLSPGTPPSTLSSSSYRRVMSSPSAMKLLPNMAVKRNHRGETLLHIASIKGDIPSVEYLLQNGSDPNVKDHAGWTPLHEACNHGHLKVVELLLQHKALVNTTGYQNDSPLHDAAKNGHVDIVKLLLSYGASRNAVNIFGLRPVDYTDDESMKSLLLLPEKNESSSASHCSVMNTGQRRDGPLVLIGSGLSSEQQKMLSELAVILKAKKYTEFDSTVTHVVVPGDAVQSTLKCMLGILNGCWILKFEWVKACLRRKVCEQEEKYEIPEGPRRSRLNREQLLPKLFDGCYFYLWGTFKHHPKDNLIKLVTAGGGQILSRKPKPDSDVTQTINTVAYHARPDSDQRFCTQYIIYEDLCNYHPERVRQGKVWKAPSSWFIDCVMSFELLPLDS
- Kd: 1340 nM
